The values below come from publication PMC3419070, “Identification of novel mitosis regulators through data mining with human centromere/kinetochore proteins as group queries” (BMC Cell Biology, 2012).

The target of this test is T1, purified recombinant 6×His-TRIP13 (human, UniProt Q15645 1-432).
T1 construct: TRIP13, human AAA-ATPase; full-length cDNA cloned by the Gateway system; The host is probably E. coli: the methods name destination vectors for E. coli or mammalian cells; also called His-tagged TRIP13
T1 sequence (looked up): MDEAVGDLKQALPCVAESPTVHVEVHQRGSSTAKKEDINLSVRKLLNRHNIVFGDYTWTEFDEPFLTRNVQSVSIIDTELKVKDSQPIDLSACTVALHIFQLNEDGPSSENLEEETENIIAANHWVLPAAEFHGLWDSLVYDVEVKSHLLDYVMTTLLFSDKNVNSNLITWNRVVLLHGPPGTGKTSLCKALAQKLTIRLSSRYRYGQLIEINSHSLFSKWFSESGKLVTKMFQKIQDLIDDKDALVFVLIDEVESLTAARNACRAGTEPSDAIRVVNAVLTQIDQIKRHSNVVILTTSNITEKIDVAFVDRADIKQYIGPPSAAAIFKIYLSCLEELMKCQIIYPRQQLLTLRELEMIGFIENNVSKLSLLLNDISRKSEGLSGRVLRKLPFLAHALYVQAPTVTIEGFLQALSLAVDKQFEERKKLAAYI
Description: pull-down; in vitro binding of recombinant proteins: His-TRIP13 at 100 nM, GST-p31^comet at increasing concentrations; Probond nickel beads, washed; blots with anti-6×His and anti-GST antibodies. Particulars: both partners purified.

B1: purified recombinant GST-p31^comet (natural protein, human, UniProt Q15013 1-274, looked up)
chain: MAAPEAEVLSSAAVPDLEWYEKSEETHASQIELLETSSTQEPLNASEAFCPRDCMVPVVFPGPVSQEGCCQFTCELLKHIMYQRQQLPLPYEQLKHFYRKPSPQAEEMLKKKPRATTEVSSRKCQQALAELESVLSHLEDFFARTLVPRVLILLGGNALSPKEFYELDLSLLAPYSVDQSLSTAACLRRLFRAIFMADAFSELQAPPLMGTVVMAQGHRNCGEDWFRPKLNYRVPSRGHKLTVTLSCGRPSIRTTAWEDYIWFQAPVTFKGFRE
notes: p31^comet (MAD2L1BP), human mitotic checkpoint silencing protein; full-length cDNA cloned by the Gateway system; The host is probably E. coli: the methods name destination vectors for E. coli or mammalian cells; also called MAD2L1BP
As for B1, the binding result is on record as “binds”.
